From patent publication US6506595

Legend:
[1] = biological target: MWPmp20-(His)6-EGF-TEV-Somatostatin 28

B1: TEV protease (GIBCO BRL) (protein)
chain: GESLFKGPRDYNPISSTICHLTNESDGHTTSLYGIGFGPFIITNKHLFRRNNGTLLVQSLHGVFKVKNTTTLQQHLIDGRDMIIIRMPKDFPPFPQKLKFREPQREERICLVTTNFQTKSMSSMVSDTSCTFPSSDGIFWKHWIQTKDGQCGSPLVSTRDGFIVGIHSASNFTNTNNYFTSVPKNFMELLTNQEAQQWVSGWRLNADSVLWGGHKVFMSKPEEPFQPVKEATQLMNELVYSQ
cleavage of the fusion protein, shown by SDS-PAGE and Western blotting (MWPmp20-TEV-G-GH): the mutant human growth hormone G-GH with extra Gly at the N-terminus was cleaved at the same position (as indicated by an arrow) as the commercially available human growth hormone | cleavage of the fusion protein, shown by Western blotting [1]: somatostatin 28 was cleaved out with TEV protease
